Assay: soluble on expression in E. coli; label from the status in PepcDB or PDB records

Sequence | soluble on expression in E. coli
MGSDKIHHHHHHMDITQLKMFQTVVECGTMAKASLQLHCVPSNITTRIKQLEEELGAPLFYREGKSLKLTPSGEIFLDYCHKILALCDEAKRSIHPDAPPSGPLKIGAIESSATTRLPNLLAKYHQRYPEVSIQIITGTWKQLLVDISQHKLDGAIVAGNIEFPMLNKLSIYQEDMVLIASHSLGEIRCQEDLIGKEIFMWTEGCPYRAALEEWLKLKNISLPITSITSYATIIGCVSAGSGVALVPKSIYEQYKNLAHIQSYKFEYLAFMQNHFFWHKNVSNHKARDMFIELIKSEFCL | not soluble
MMTKTTTVPKNVYELAQERLRIVFNEFDNVYLSFSGGKDSGVLLSLCIDYIRRNNLKIKLGVFHMDYEIQYKMTIDYIARMLEDNKDILEVYRVCVPFRVATCTSMYQSFWRPWEDSKKDLWVRPLPENAMTKEDFPFYNTQMWDYEFQMRFASWLHEKKDAVRTCCLIGIRTQESFNRWRCIYLNRKYQMYHRYRWTSKVGNDIFNAYPIYDWKTTDVWTANGKFKWDYNKLYDYYYW | not soluble
MGSDKIHHHHHHMESIENSYGRLLLESQLPDSAKQLAQPLKSVVILRGKMICQRCHYQLDEEARLPSGAYYCRFCLVFGRNQSDKLLYAIPPMHFPKGNYLVWGGQLTAYQEMISQQLLINMQNQKTTLVHAVTGAGKTEMIYAAIEAVINTGGWVCIASPRVDVCVEVATRLSQAFSCSICLMHAESLPYQRAPIIVATTHQLLKFHKAFDLLIIDEVDAFPFVNNIQLHYAASQALKEGGAKILLTATSTRTLERKVNKGEVVKLTLARRFHNRPLVIPKFIRSFNLFKMIHRQKLPLKILKYLKKQRKTGYPLLIFLPTIIMAESVTAILKELLPAEQIACVSSQSQNRKEDITAFRQGKKTILITTSILERGVTFPQIDVFVLGSHHRVYSSQSLVQIAGRVGRSIDRPDGTLYFFHEGISKAMLLARKEIKEMNYKGYSHDLSTMSTN | not soluble
MSTSSVRFAFRRFWQSETGPKTVHFWAPTLKWGLVFAGFSDMKRPVEKISGAQNLSLLSTALIWTRWSFVIKPRNILLASVNSFLCLTAGYQLGRIANYRIRNGDSISQLCSYILSGADESKKEITTGR | not soluble
MGSDKIHHHHHHMWCRNLTVRYPDQDRDVLNDLTVSLRQGETTLLIGPSGSGKTTFLHTLAGLMPETIEAEVTGEWRADGTVGMLFQQPDDQFCMQTVGAEIAFSLENRSIPRDEMEERIRTVLKRVGLDLALTTQIAGLSGGMKQRLALACVLALEPDILLLDEPTAQLDPHGRRLMMELIEELHHNPNVTLVLIEHQLEECVTFADRVLVFREGQLRLDGSPLDVFEEKREDLTRHGIMCPLLYPYTLETIPLTIATARFLDGPPVARRPVANETTLDLTDVTIAHGKRMILDQISLTASAGEWIMLVGRNGAGKSTLLETLAKLLPAQSGTIKLFQTPLKKWRDRTFYRQVGFVFQQPEFQFLKQTVADELAISSPSPARSQVADALQHYRLEDVAAQSPLALSLGQKRRLSVATMLLERKAVLLLDEPTFGQDAETTAQILDVLHQAREAGTTLIMVTHDMELVYRYADRVVVIGEKHVQFDGAPDELFRNESLLEHNQLIRPVSVRYQQLEEVKHRAGKQFVARTP | not soluble
MGSDKIHHHHHHMDGSSQEGEKKKKVYEVKTFPISFALGENQENITITTQTPSKPSKEKKFHKARMLHKQGKIAEAKKYYQQLINEGFNDHRVFSNYGVILAQLGKLKEAEISTRKAIEMQPNYAEAHSNLGIILNDLGKLEEAEICQRKAIKIKPNLTGAAWNLYGLANTIKEAEERVNQVLKIDENHVEAQLHLSALKLHQGDQSLFDNLTKSTHKDHAITRSIKWVANLPKLPELFFYRWALFDSMTKKSKKDRPFYEFGVWRGASFRYLINTFKKGYGFDTFEGLPEDWHHEAQGTYSAEGIIPNIEGGEFIAGKFEDTLPTFYSKPRPMASIINFDADLYSSTLCALNCSKPVIDKDTILIFDEFIISENWEQDEYKALNEFCSKNNLTYEVLAVSYFEKQVAVKLIGV | not soluble
DIGCYTLGGFEPLNAIDTTICMGASIGMAHGFEMARGKEFAKKSVAVIGDSTFWHSGVTGLIDIVYNKGHSTVIILDNSITAMTGHQENPSTGKTLSGERTNQIDFEALGRSIGINRICVVDAYDLKALEETIKEEVNAEEPSLIITKRPCVLIKGAKFDFKDYKIDP | not soluble
MRVDLERQQHQFLRRTYGPQHRLTTQQALTVMRVAAREQTRYSQRTTQCVAAHLLEQRAAVQQELQRARQLQSGNVDDALDSLTELKDTVDDVRATLVDSVSATCDLDLEVDDAVLEHHHHHH | not soluble
MGSDKIHHHHHHMSDNDLQRRILDAVDAGFDAQLATTRDFVAIPSTRGAEGPCQDMIGDLLRQRGYEVDDWHIDLDDLKDLRGYGPIEHDFSKARTVVGTYRPSTNAGRSLILQGHCDVVPAGPLEMWDTPPFSPVIKQGRMYGRGACDMKSGTIGALYALDAIKAAGLRPTGRIHFQSVIEEESTGVGALSTLQRGYRADACFIPEPTGGKMVRSQVGVIWFRLKVRGYPVHVATAGTGSNAITAAYHLIDALGKLEEEWNRRAASDPHFKTLAHPINFNPGIIKGGDWASSVPAWCDVDCRIAILPGWSVADHQAEILACVSAAARDHRFLSNNPPQVEWSGFLSEGYELKNAAEPEAAFGKAYQAVYGSEVEDLVFTALTDTRFYGLNYNIPSLCFGASGEAMHGFNEYIDLESLRQSTKATALFIAEWCGVEPA | not soluble
MRRESYRERALVVRSYDFGEADRIIVLFTRGRGIVRGVAKGVRRAKSRFGSRLQPFVELDVQLYRGRNLESITAADTVAYFGAKIIDDVTRFSAASSILEGVEKLAVGDEPRLFDLTVTALKNMQSCAHPVAEVDTFLLQGMNIAGWAPSLFDCAQCGASGPHHAFHPSPGGAVCVHCRPLGAQEVDPETLHMMWLMAQGHRDAVAEIGTPERYQQAHALIRSHLSWHVERGLASLNVLDQV | not soluble
MGSDKIHHHHHHMASPINESRIGYLYEAVRCGTVRAAADYLDVAPSAVSRQIALLEEELAIALVERNKRGVRPTEAGALLIEYFRQQRSHQGDLIAKLQEIRGLRRGTIAVVMGEGFASTMVSGPIKQYCEAYPEISITLDLCSTNEVMRRVSEDEAEIGLVFNPASDARIVSRVGSRQPMHAIVSPAFPLVGKVQSVTLRDMLPYPLALTHPEHGTRRLVDAAMLLEKVRLTPAITTNSATILKLFAKSNLGFTLLTPISIAAELAAGELVAIPVENRLLQSPEAHLVTRAGRQLSPAANRLLQRLTAQINQYAQYGSAS | not soluble
MGSDKIHHHHHHMCRLIGYLGNAIPLDELLYKQEHSLYQQSYSPLELKSGVVCADGVGVGWYDQVGKPFIYRNTIPMWNDPNLEELSNYVQSTCTVGYARLAGIGESLDISNCQPFRSDQLLFVHNGEISNFQQTLYRPIRESLSDATYRLIKGTTDSEHIFALLVQMWQSSPDSTLFWALGATLEKLTELASEYNTSFSANLIVSDGEAIAAIRYAYRTQAPTLYWSYDALKHPNQVIVASEPLSNNQNWTAFDEQSMLFFQAQSLEPRISLLKKFSAIGV | not soluble
MAEGKAGGAAGLFAKQVQKKFSRAQEKVLQKLGKAVETKDERFEQSANNFYQQQAEGHKLYKDLKNFLSAVKVMHESSKRVSETLQEIYSSEWDGHEELKAIVWNNDLLWEDYEEKLADQAVRTMEIYVAQFSEIKERIAKRGRKLVDYDSARHHLEAVQNAKKKDEAKTAKAEEEFNKAQTVFEDLNQELLEELPILYNSRIGCYVTIFQNISNLRDVFYREMSKLNHNLYEVMSKLEKQHSNKVFVVKGLSSSSRRSLVISPPVRTATVSSPLTSPTSPSTLSLKSESESVSATEDLAPDAAQGEDNSEIKELLEEEEIEKEGSEASSSEEDEPLPACNGPAQAQPSPTTERAKSQEEVLPSSTTPSPGGALSPSGQPSSSATEVVLRTRTASEGSEQPKKRASIQRTSAPPSRPPPPRATASPRPSSGNIPSSPTASGGGSPTSPRASLGTGTASPRTSLEVSPNPEPPEKPVRTPEAKENENIHNQNPEELCTSPTLMTSQVASEPGEAKKMEDKEKDNKLISADSSEGQDQLQVSMVPENNNLTAPEPQEEVSTSENPQL | soluble
MGSDKIHHHHHHMITPQDRLIKALNGQVIDRSPCICPGGMMNMATTEIMQRVGSHWPEAHKKPQDMARLALGVCHLTGMENLGVPFCMTVEAEAMGAKVNLGSLANEPRVAEYPLMKLEDWETLSGINPGEGRAGIVAEAVSYLTSSKTELPVIANLTGPISLASSLIEPMVFFKAMGKKPELVHEFLYFVTDNLIVFGRSMLQAGAQIINIADPGGTEEILGPRHFAEFALPYINRILNELQGEYQASMVHICGRLQSIFTEINQLATNAISIDSTTSISKLRSALREKVVVGNISTYLLQNAQPGRVKATGFNCLRKGITILSPACGISPATPLANLQAMVSAVHDFDYQNREVSSLG | not soluble
MGSDKIHHHHHHMKNLLDLSYEELVTEITNLGLERYRADQILDWVFDKKVNNFDEMTNLSKKHRALLKEHFSISFLKLLDKKVSRIDGTTKFLWELEDGNTIESVMLFHPDRITACISTQVGCPVKCIFCATGMSGFVRNLTTGEIVAQILSMEKEEKKKIGNVVYMGMGEPLLNYENTIKSIRILNHKKMGNIGIRRITISTVGIPDRIIQLAEEGLDVKLALSLHAPTNFKRDQLVPLNKKYSIEEILNAVKIYQRKTGNRVTIEYVLIRGINDEISDAKKLAEILRNMKVFVNLIPVNPTVEGLRRPSRERLLTFKRILLENGIEAEIRREKGTDIEAACGQLRLKRIKSRS | not soluble
MSLSQLVLILGDQLSPSIAALDGVDKKQDTIVLCEVMAEASYVGHHKKKIAFIFSAMRHFAEELRGEGYRVRYTRIDDADNAGSFTGEVKRAIDDLTPSRICVTEPGEWRVRSEMDGFAGAFGIQVDIRSDRRFLSSHGEFRNWAAGRKSLTMEYFYREMRRKTGLLMNGEQPVGGRWNFDAENRQPARPDLLRPKHPVFAPDKITKEVIDTVERLFPDNFGKLENFGFAEGHHHHHH | not soluble
LVRGGWLWRQSSILRRWKRNWFALWLDGTLGYYHDETAQDEEDRVVIHFNVRDIKVGQECQDVQPPEGRSRDGLLTVNLREGSRLHLCAETRDDAIAWKTALMEANSTPAPAGATVP | soluble
MGSDKIHHHHHHMERLPTTPHDAVFRQMLMQKEVARDFLAIHMPEDFLAICDLDSLKLESGSFVEDNLRSRYSDILYSLHTQHGPGYVYALIEHQSKSDRLMAFRLMRYAIAAMQRHLDAGHDTLPLVVPILFYHGPESPWPYSLNWHNMFVKPDMAKALYSRDFALVDLTTMPDNQLLQHRRIAMLELLQKHIRQRDLSELLDPLITLLTQDHLTDAQLSVLINYMLKAGNAAEPGALIRQLAQGAPQYKEQLMTIAEWLEEKGRTEGLQKGLQKGLEQGLAQGREAEARAIARKMLANGLEPGLIASVTGITPEELSTLSH | not soluble
MGPNHPCGYLPGRDARFTYVSPAYPLSPQSYRGLLEEGFRRSGNWVYRPCCIGCSACLPVRLPVHDFRLTRSHRRVIKRNADIDIRVSVARFDERQFQLYVRYLAARHPTDTPVSRDDYWSFVSSSWAQTRFVEFRSYSELIGVAVVDHVPGALSAVYTFFDPDAAERSPGSLAILWQILEARRLGREWLYLGYWIGGCRKMEYKARYRPLEALIANRWRRFQVDEPLTSSVLLEHHHHHH | soluble
MSLGHIIVTGAGSGLGRALTIGLVERGHQVSMMGRRYQRLQQQELLLGNAVIGIVADLAHHEDVDVAFAAAVEWGGLPELVLHCAGTGEFGPVGVYTAEQIRRVMESNLVSTILVAQQTVRLIGERGGVLANVLSSAAQVGKANESLYCASKWGMRGFLESLRAELKDSPLRLVNLYPSGIRSEFWDNTDHVDPSGFMTPEDAAAYMLDALEARSSCHVTDLFIGRNEGHHHHHH | soluble

— the DeepSol protein solubility set
